Our source for the protein stability index values is the supplement of paper PMC10567573.

± gives the standard deviation.

The nature of this data set: protein stability index of a GFP-peptide fusion (GPS, HEK-293T) (PSI 1-6); higher = more stable.
Setting [1] is: treatment: DMSO, c terminus: a fixed tail appended.
The mark [2] stands for this setting: treatment: MLN4924 1 uM, 8 h, c terminus: a fixed tail appended.
Setting [3] is: treatment: DMSO, c terminus: native.
[4] abbreviates: treatment: MLN4924 1 uM, 8 h, c terminus: native.
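Note: 24-mer peptide tiles fused after GFP, lentivirally expressed, FACS-sorted into six equal bins by GFP/DsRed ratio, decoded by Illumina sequencing, PSI is the read-weighted mean bin number.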

Consider TPLQSRTSIVQAAAGGVPGGGSNN [PDLIM7], for which the protein stability index under setting [1] stood at 4.71 ± 0.2 and the protein stability index under setting [2] is 5.03 ± 0.24.
With TQHNFQEVMESEEFMLLPANQLID [KLHL20], the protein stability index runs as follows: under setting [1], 4.43 ± 0.18; under setting [2], 4.66 ± 0.24.
For TQIRTITEEIRDGKVISSREHVQS [KRT36] the same measures were 4.75 ± 0.088 and 4.86 ± 0.1.
For TQQNRKLTDFYPVRRSSRKSKAEL [KMT5A], the protein stability index stood at 2.97 ± 0.89 under setting [1] and 3.76 ± 0.29 under setting [2].
For TQSLPTASASKFPSSGPVTPQPTA [AUP1] the same measures were 4.85 ± 0.22 and 4.78 ± 0.16.
Turning to TRILKHSPESSRGQCGENLAWASY [GLIPR2], the protein stability index under setting [1] was 2.38 ± 0.44 and the protein stability index under setting [2] is 2.38 ± 0.18.
The sequence TSCSLELIGDLIGHSSSVEMFLYF [WDR41] had a protein stability index under setting [1] of 3.13 ± 0.88 and a protein stability index under setting [2] of 2.4 ± 0.74.
With TSETSHSPLYADPYTPPATSHRRV [PLEKHN1], the protein stability index by setting is: under setting [1], 4.39 ± 0.12; under setting [2], 4.34 ± 0.08.
Turning to TSGGSNIIYVASNHFVWRLIPVPM [VPS39], the protein stability index stood at 2.44 ± 0.36 under setting [1] and 2.51 ± 0.74 under setting [2].
For TSVLATLVVFAVLGFKANIMNEKC [SLC6A17] the same measures were 2.66 ± 0.12 and 3.31 ± 0.11.
As for TTEQHVPEVEVQVKRRRTASLSNQ [SNURF], the protein stability index by setting is: under setting [1], 5.25 ± 0.27; under setting [2], 5.23 ± 0.17.
For TTSDIPHMLNQVESKVKDILSKVQ [FAM98B] the same measures were 2.48 ± 0.38 and 2.32 ± 0.32.
Regarding TTVPDGPTQLRALNLTEGFAVLHW [TNXB], the protein stability index reads like this: under setting [1], 2.18 ± 0.098; under setting [2], 2.05 ± 0.065.
As for TVETCRALGKLLPRETLCTELVLS [LRRC45], the protein stability index by setting is: under setting [1], 2.67 ± 0.25; under setting [2], 2.55 ± 0.13.
In turn, TVLENEDDMLLFDEQEKGIVTKFY [FAN1] had a protein stability index under setting [1] of 3.65 ± 0.12 and a protein stability index under setting [2] of 3.72 ± 0.26.
For TVMILPVTHTEISPEQQFDRSVQR [TMEM175] the same measures were 3.64 ± 0.28 and 3.76 ± 0.16.
For the sequence TVSIMEPGETRRNSYPRADTGLFS [TRIM29], the protein stability index stood at 3.81 ± 0.2 under setting [1] and 3.64 ± 0.37 under setting [2].
Turning to TWDGRPLTMAATFDDCLYALCVVD [GFOD1], the protein stability index was 2.38 ± 0.46 under setting [1] and 2.35 ± 0.61 under setting [2].
TWKVLFCSMSATFTLNFFRSGIQF [CLCN6]: the protein stability index runs as follows: under setting [1], 3.25 ± 0.11; under setting [2], 3.2 ± 0.73.
In the case of TWRLPDVSEAGGSGRLSASWEPLS [FCHO1], the protein stability index under setting [1] is 3.38 ± 0.13 and the protein stability index under setting [2] amounted to 3.24 ± 0.26.
For TWWIMFLSTFSVPYFLFQHWATGY [SOAT1], the protein stability index by setting is: under setting [1], 3.18 ± 0.29; under setting [2], 2.77 ± 0.51.
Consider TYECRCIGEEKEMWNFGEKYARF [TIA1], for which the protein stability index reads like this: under setting [3], 2.58 ± 0.59; under setting [4], 2.93 ± 0.65.
TYGRRAKGHNTPKDIAHFWELGGG [DYNC2LI1] had a protein stability index under setting [1] of 2.84 ± 0.11 and a protein stability index under setting [2] of 3.07 ± 0.18.
TYKRFEGLTQRGSIPTYMKAGKL [STK38L]: the protein stability index came out at 2.26 ± 0.18 under setting [3] and 2.41 ± 0.19 under setting [4].
For the sequence TYSLVPKKKTKVLKQRTVIEMFKS [EHMT1], the protein stability index reads like this: under setting [1], 2.41 ± 0.21; under setting [2], 2.58 ± 0.34.
For the sequence VASGYHYGVASCEACKAFFKRTIQ [ESRRA], the protein stability index runs as follows: under setting [1], 2.29 ± 0.27; under setting [2], 2.47 ± 0.48.
In turn, VCEQCLQILYESCPKYKFISCPTC [RNF208] displayed a protein stability index under setting [1] of 4.06 ± 0.29 and a protein stability index under setting [2] of 4.09 ± 0.5.
As to VCRARPRACSHLIRLMQRCWQGDP [RIPK4], the protein stability index is, setting by setting: under setting [1], 2.21 ± 1.1; under setting [2], 2.86 ± 0.35.
For VCSILLGTSTLLVWVGVIRYLTFF [MCOLN1], the protein stability index was found to be 3.3 ± 0.42 under setting [1] and 3.02 ± 0.079 under setting [2].
For VDGRHLLRTLSRAKFWPRRRFNFF [DNAAF3] the same measures were 1.92 ± 0.23 and 2.17 ± 0.11.
Take VDHHGTAQLQALRQKEVDFCISLL [INTS3]: the protein stability index was found to be 2.23 ± 0.2 under setting [1] and 2.35 ± 0.45 under setting [2].
For VDKYVNSFVLKNFPALLSTGEFLK [KLHL13] the same measures were 2.01 ± 0.45 and 2.1 ± 0.6.
Turning to VDQTGVSGGVASFICQATGDPRPK [PTPRD], the protein stability index by setting is: under setting [1], 4.62 ± 0.17; under setting [2], 4.81 ± 0.2.
Turning to VDQYLALPDVSLGRYAYVRGGGDP [MCOLN1], the protein stability index came out at 3.19 ± 0.26 under setting [1] and 3.03 ± 0.4 under setting [2].
Regarding VDSFETQRNGLVFIYDMCGSNYAN [PTPN9], the protein stability index reads like this: under setting [1], 2.23 ± 0.24; under setting [2], 2.05 ± 0.28.
Regarding VEESEASSSVSISHSASATGNVCI [LMNB1], the protein stability index is 4.84 ± 0.11 under setting [1] and 4.71 ± 0.12 under setting [2].
As for VELLHNTSYTRQACLVSCFQQLMV [SCNN1D], the protein stability index was determined as 2.39 ± 0.78 under setting [1] and 2.5 ± 0.94 under setting [2].
Take VENELMISYLMFLQILVYFSFMSW [FAM98B]: the protein stability index was found to be 2.94 ± 0.45 under setting [1] and 3.14 ± 0.05 under setting [2].
For VFFAYAQLGYLLFGTQVENFSTFI [PKD2L1] the same measures were 3.33 ± 0.054 and 2.71 ± 0.72.
With VGEVPYWVLEPVLEGWRPDQLYRR [ELOA2], the protein stability index came to 1.97 ± 0.33 under setting [1] and 2.32 ± 0.33 under setting [2].
Take VGGEAVEVEEVENVQTEFPGEDEN [TRIM55]: the protein stability index was 5.74 ± 0.2 under setting [1] and 5.61 ± 0.34 under setting [2].
For VGRTVLDMLIREVVEKRLCMYEHG [RSPH3], the protein stability index is, setting by setting: under setting [1], 2.89 ± 0.52; under setting [2], 3.39 ± 0.14.
Consider VGSDPLIKSDEECRDLVDEAKNYL [KLHL20], for which the protein stability index reads like this: under setting [1], 5.2 ± 0.11; under setting [2], 5.09 ± 0.28.
VGVAGLISPWNLPLYLLTWKIAPA [ALDH8A1] showed a protein stability index under setting [1] of 2.92 ± 0.97 and a protein stability index under setting [2] of 2.88 ± 0.95.
Under setting [1], VIRKNIVKKCLELFSELAEDKENY [HSP90AB1] showed a protein stability index of 2.33 ± 0.046.
For the sequence VISLEKLNVGNERYVFEAVIRWIA [GAN], the protein stability index reads like this: under setting [1], 2.38 ± 0.38; under setting [2], 2.09 ± 0.29.
For the sequence VKMDQKSKHLKEMYQELMEMCHKP [TRIM43], the protein stability index was 3.03 ± 0.15 under setting [1] and 3.13 ± 0.28 under setting [2].
In turn, VKSVSPQGNSVDRMAAPRAEALFD [NCF4] yielded a protein stability index under setting [1] of 4.35 ± 0.14 and a protein stability index under setting [2] of 4.71 ± 0.14.
In the case of VLENLEDSCVLTGPDDSLWDKHAC [TRIB3], the protein stability index by setting is: under setting [1], 3.69 ± 0.16; under setting [2], 3.87 ± 0.26.
For VLGVADGVGGWRDYGVDPSQFSGT [PPTC7], the protein stability index reads like this: under setting [1], 3.51 ± 0.24; under setting [2], 4 ± 0.088.
For the sequence VLICVIVFIIILFIVLFATGAFS [VAMP8], the protein stability index by setting is: under setting [3], 4.42 ± 0.23; under setting [4], 4.34 ± 0.15.
Consider VLRAGDREDITEPAICALRHLTSR [CTNNB1], for which the protein stability index under setting [1] was found to be 3.39 ± 0.39 and the protein stability index under setting [2] was 3.67 ± 0.18.
In the case of VLSCEAATQTERRLDLAAVTLRRG [FAM189A2], the protein stability index is, setting by setting: under setting [1], 4.25 ± 0.19; under setting [2], 4.28 ± 0.34.
Take VLVHVQKWDGKSTTIKRKREDDKL [FABP4]: the protein stability index reads like this: under setting [1], 2.85 ± 0.46; under setting [2], 2.85 ± 0.4.
In the case of VLVLIFNAAKTCPTMPALFSDHTF [INTS4], the protein stability index is 3.16 ± 0.42 under setting [1] and 3.16 ± 0.48 under setting [2].
In the case of VMDYLPISSTSTKRTYWPDLDAKI [PLD5], the protein stability index runs as follows: under setting [1], 2.77 ± 0.19; under setting [2], 2.85 ± 0.1.
For VMSGVKCSGTELSLAHCRHDGEDV [LOXL2] the same measures were 4.95 ± 0.21 and 4.89 ± 0.24.
For VNKYYPPDFNPEKHGSLNRYHNSH [YJU2B] the same measures were 3.41 ± 0.21 and 3.21 ± 0.39.
As for VNYSDPNDADKAINTLNGLKLQTK [ELAVL3], the protein stability index runs as follows: under setting [1], 4.66 ± 0.2; under setting [2], 4.62 ± 0.12.
Turning to VPVQPLLPESLARSLLPSTEYQKQ [FBF1], the protein stability index by setting is: under setting [1], 4.18 ± 0.18; under setting [2], 4.58 ± 0.28.
Regarding VQTWTQPRLCYLVKEGGSYGFSLK [PDZK1], the protein stability index by setting is: under setting [1], 2.13 ± 0.24; under setting [2], 2 ± 0.33.
On to VQVSPEFKDSAGKSPTGLKLKNDT [ZNF75A], for which the protein stability index reads like this: under setting [1], 4.96 ± 0.23; under setting [2], 4.91 ± 0.15.
Regarding VRTLSEPPDKGEEQVNFCESSNDF [ZBTB22], the protein stability index reads like this: under setting [1], 5.14 ± 0.25; under setting [2], 5.26 ± 0.39.
For VRVLESLLVSLVTTVVVFVASMVL [CLCN6] the same measures were 3.13 ± 0.4 and 3.3 ± 0.34.
For the sequence VSQAVEGPEELSRSSSESKLPSSG [RIPK4], the protein stability index was determined as 5.21 ± 0.62 under setting [1] and 5.06 ± 0.58 under setting [2].
On to VSRRAAAAAATVLLRTARVRRECW [SLC19A2], for which the protein stability index is, setting by setting: under setting [1], 2.58 ± 0.17; under setting [2], 2.99 ± 0.36.
On to VSSAVSPSIIPQEDPSQQFLQQSL [INTS4], for which the protein stability index came to 4.2 ± 0.24 under setting [1] and 4.41 ± 0.083 under setting [2].
On to VTGREGFPTDAPYPTTLGKDRECQ [ZNF8], for which the protein stability index under setting [1] turned out to be 4.74 ± 0.13 and the protein stability index under setting [2] was 4.8 ± 0.32.
For VTGYGINGTGDSNDFWRIEVVNRK [POMT2] the same measures were 3.29 ± 0.21 and 3.39 ± 0.17.
For VVCGMFGFPGERTYNTKVYKMFAS [LOXL2] the same measures were 2.66 ± 1.1 and 2.63 ± 0.2.
Take VVLKLFLSFSGSDVQNKLKESAQC [SNX8]: the protein stability index came to 2.8 ± 0.76 under setting [1] and 2.92 ± 0.52 under setting [2].
For the sequence VVTLWYRAPEVLLQSTYATPVDMW [CDK4], the protein stability index reads like this: under setting [1], 3.15 ± 0.61; under setting [2], 3.07 ± 0.68.
